As usually defined, the Km is the concentration of substrate that gives half-maximal velocity.

Data set [1] deals with C=C(C)CCO[P@@](=O)(O)OP(=O)(O)O. In words: purified protein, by the assay type. Particulars: other: substrate Km of S. pneumoniae UPPS; pH optimum 7.5-8.0; pH 7.5; 25.0 °C.
Data set [2] concerns CC(C)=CCC/C(C)=C/CC/C(C)=C/CO[P@@](=O)(O)OP(=O)(O)O. Nature of the data set: purified protein, by the assay type. Particulars: other: substrate Km of S. pneumoniae UPPS; pH optimum 7.5-8.0; pH 7.5; 25.0 °C.
Method: The reaction was incubated at 25° C. for 25 min and stopped by addition of EDTA to 50 mM. The reaction was extracted with equal volume of 1-butanol and the radioactivity in the butanol phase was measured with a liquid scintillation counter (Shimizu, N., T. Koyama, and K. Ogura. (1998) J. Biol. Chem. 273:19476-19481).

Consider “S. pneumoniae UPPS (Streptococcus pneumoniae TIGR4)”, for which the Km in data set [1] was determined as 3.6 µM; in data set [2], 0.5 µM.
